According to patent US20260218135A1 (REGENTS OF THE UNIVERSITY OF COLORADO A BODY CORPORATE, published 2026):

Experiments:
[1] = target: HA-PEG10 gag-pol (2x HA-tagged human PEG10, AA1-708) (Homo sapiens) (UniProt Q86TG7); assay: cell-based or functional assay
[2] = target: T1, FLAG-HsRTL8c-3'UTR (3x FLAG-tagged human RTL8c, AA1-113) (Homo sapiens, UniProt A6ZKI3 1-113); assay: crosslinking co-immunoprecipitation, IP-FLAG, HEK293 lysate, western blot
T1 construct: range 1-113; Expressed in HEK293 cells from pcDNA3.1; also called FLAG-RTL8c; human FLAG-RTL8; not shown: 3x FLAG tag (N-terminal)
Excerpt: HA-PEG10 was visible as four distinct bands representing gag-pol, gag, and two self-cleavage products generated via activity of the PEG10 protease domain^{16,36,37}. The 37 kDa band represents a retrovirus-like capsid fragment, and the 22 kDa band reflects a protein fragment consisting of the N-terminal ~100 amino acids of the protein (referred to as the ‘N-terminal fragment’, or ‘NTF’) 16. Upon immunoprecipitation of HA-PEG10, Applicants observed co-immunoprecipitation of FLAG-RTL8c (FIG. 3a).
Beads were first crosslinked to antibodies. Primary antibodies (5 μg) or isotype controls (5 μL) were incubated with 40 μL protein A (Invitrogen) or protein G (Pierce) bead slurry for 30 min to couple antibodies to beads. After coupling, beads were collected by centrifugation and the supernatant discarded. Unless otherwise stated, all incubations and washes were performed with end-over-end rotation at room temperature. All centrifugation to collect beads was performed 2,500×g for 2 min. Beads were washed twice (1 mL 0.2M sodium borate, pH 9 for 1 min), resuspended in 400 μL 20 mM dimethyl pimelimidate (DMP, Thermo) and incubated for 30 min to crosslink antibodies. After crosslinking, beads were washed twice (1 mL 0.2M ethanolamine (EMD Millipore) pH 8 for 5 min) and incubated in 1.4 mL 0.2M ethanolamine for two hr. Beads were then washed twice (1 mL PBS for 5 min). […]

[3] = target: T1, FLAG-HsRTL8c-3'UTR (3x FLAG-tagged …); assay: co-immunoprecipitation with FLAG-RTL8c, western blot (FIG. S6b)

T1 sequence (A6ZKI3 whole entry, the tested form may be a part): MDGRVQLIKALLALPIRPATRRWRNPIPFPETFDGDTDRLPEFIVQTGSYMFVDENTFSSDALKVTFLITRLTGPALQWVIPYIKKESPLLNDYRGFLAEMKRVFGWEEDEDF

Molecule	binding result [2]	also measured
HA-HsRTL8c-3'UTR (2x HA-tagged human RTL8c, AA1-113) (from UniProt A6ZKI3 1-113)		abundance of HA-RTL8c relative to HA-PEG10 in the VLP fraction (western blot) [1]: 5%
N-terminal fragment of HA-PEG10 (22 kDa self-cleavage product, N-terminal ~100 amino acids) (other, Homo sapiens, UniProt Q86TG7 1-111, looked up, A band on the blot; The construct that mimics it (AA1-111) is m6; also called NTF; shorter proteolytically cleaved N-terminal fragment; not shown: 2x HA tag (N-terminal) of the parent HA-PEG10 construct) MTERRRDELSEEINNLREKVMKQSEENNNLQSQVQKLTEENTTLREQVEPTPEDEDDDIELRGAAAAAAPPPPIEEECPEDLPEKFDGNPDMLAPFMAQCQIFMEKSTRDF	no binding	
HA-N-terminal fragment construct (2x HA-tagged human PEG10, AA1-111) (other, Homo sapiens, UniProt Q86TG7 1-111, looked up, range 1-111; Truncation construct that mimics the natural self-cleavage of PEG10; also called HA-NTF; not shown: 2x HA tag (N-terminal)) MTERRRDELSEEINNLREKVMKQSEENNNLQSQVQKLTEENTTLREQVEPTPEDEDDDIELRGAAAAAAPPPPIEEECPEDLPEKFDGNPDMLAPFMAQCQIFMEKSTRDF		binding result [3]: no binding
HA-capsid^CTD (human PEG10, AA161-259, 1x HA C-terminal) (other, Homo sapiens, UniProt Q86TG7 161-259, looked up, range 161-259; not shown: 1x HA tag (C-terminal)) PQRREVAKRKIRRLRQGMGSVIDYSNAFQMIAQDLDWNEPALIDQYHEGLSDHIQEELSHLEVAKSLSALIGQCIHIERRLARAAAARKPRSPPRALVL	no binding	
